The values that follow come from patent US20250136709A1 (DEVELOPMENT CENTER FOR BIOTECHNOLOGY, published 2025).

Numbering of substitutions follows the chain as printed. Where two headings read alike, the source gives them in different places. Bounds are passed on as bounds.

One assay has as its target mCD73hF2 (mouse; human) (UniProt Q61503). The assay can be described thus: ELISA, antibody titrated; panel mCD73 hF2.
The target of assay [1] is mCD73hF1 (mouse; human) (UniProt Q61503). Briefly: ELISA, antibody titrated; panel mCD73 hF1.
The target is the same in assay [2]. The assay can be described thus: ELISA, antibody titrated; right panel mCD73 hF1.
In the next assay the target is mCD73hF3 (mouse; human) (UniProt Q61503). The assay can be described thus: ELISA, antibody titrated; panel mCD73 hF3.
For another assay, the target named is T1, mouse CD73 (mouse, UniProt Q61503 29-551, limits assumed).
T1 construct: Expressed in F293 cells and used in ELISA
T1 sequence (looked up): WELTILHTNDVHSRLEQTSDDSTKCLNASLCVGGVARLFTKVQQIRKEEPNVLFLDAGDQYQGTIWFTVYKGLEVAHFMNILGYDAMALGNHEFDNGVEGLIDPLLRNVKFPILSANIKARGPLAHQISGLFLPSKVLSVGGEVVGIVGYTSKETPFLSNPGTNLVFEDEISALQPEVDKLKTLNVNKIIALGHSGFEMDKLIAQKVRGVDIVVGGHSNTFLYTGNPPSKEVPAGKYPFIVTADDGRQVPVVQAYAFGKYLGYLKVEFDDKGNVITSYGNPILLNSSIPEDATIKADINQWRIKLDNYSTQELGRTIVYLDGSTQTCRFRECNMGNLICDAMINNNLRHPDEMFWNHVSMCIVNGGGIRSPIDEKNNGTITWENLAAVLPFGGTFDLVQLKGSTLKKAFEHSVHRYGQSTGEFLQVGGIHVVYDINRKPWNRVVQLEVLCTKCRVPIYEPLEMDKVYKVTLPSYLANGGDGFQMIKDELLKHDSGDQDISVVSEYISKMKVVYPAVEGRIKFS
The assay can be described thus: ELISA, antibody titrated; left panel mCD73. From the text:
The binding affinities of the above four mutated antibodies, 10H5 antibody, Oleclumab, and IgG to mouse CD73 and mouse CD73 hF1 were respectively analyzed by using ELISA assay.

The target in assay [3] is T2, human CD73 (human, UniProt P21589 27-549).
T2 construct: the antigen of the Biacore assay is only called human CD73 antigen; also called human CD73 antigen; Recombinant Human CD73-6xHis
T2 sequence: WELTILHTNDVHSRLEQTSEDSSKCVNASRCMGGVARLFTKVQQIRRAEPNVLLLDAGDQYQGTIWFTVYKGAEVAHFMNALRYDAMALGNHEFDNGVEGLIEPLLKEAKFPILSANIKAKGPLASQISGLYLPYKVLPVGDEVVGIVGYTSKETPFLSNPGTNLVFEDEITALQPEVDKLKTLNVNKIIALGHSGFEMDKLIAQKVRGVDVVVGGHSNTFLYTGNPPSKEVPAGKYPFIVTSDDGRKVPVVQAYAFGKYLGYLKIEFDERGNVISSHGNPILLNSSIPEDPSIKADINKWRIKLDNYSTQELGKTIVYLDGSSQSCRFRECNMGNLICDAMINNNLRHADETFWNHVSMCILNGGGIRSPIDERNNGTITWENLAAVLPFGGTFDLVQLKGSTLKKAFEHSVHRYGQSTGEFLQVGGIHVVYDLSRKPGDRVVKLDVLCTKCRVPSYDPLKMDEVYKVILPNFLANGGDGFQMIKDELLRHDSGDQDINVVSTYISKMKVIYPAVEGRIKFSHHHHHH
The assay can be described thus: Biacore SPR.

In assay [4] the target is T3, human CD73 on cells (MDA-MB-231, Calu-1, KLM-1, human CD4+ T-cells) (human, UniProt P21589 27-549).
T3 sequence: T2 sequence
The assay can be described thus: cell-based or functional assay.

The target in assay [5] is T2, human CD73. The assay can be described thus: Biacore SPR. This is another data set of the same source.
The target of assay [6] is T2, human CD73. The assay can be described thus: Biacore SPR. The source holds these as a separate data set.
The target in assay [7] is T2, human CD73. The assay can be described thus: Biacore SPR. This is another data set of the same source.

As for Oleclumab (antibody), the EC50 (read off the curve) with mCD73hF2 (mouse; human), in the assay with mCD73hF1 (mouse; human) [1], with mCD73hF1 (mouse; human) [2] and with mCD73hF3 (mouse; human) was 0.1 nM in each case.

B1: 10H5-CDRH1N35A (antibody, V domains shown)
VH: QVKLQQSGAELVKPGASVKISCKASGYVFSSYWIAWVKQRPGKGLEWIGQIYPGDGNTNYNRNFKGKATLTADKSSSTAYMQLSSLTSEDSAVYFCAGFADWGQGTTVTVSS
VL: DIELTQSPSSLSASLGERVSLTCRASQDIGDSLIWLQQEPDGTIKRLIYATSSLDSGVPKRFSGSRSGTSYSLTISSVEAEDAATYYCQQYSGYPLTFGSGTKLEIK
notes: Alanine mutant of 10H5; printed '10H5-CDRHIN35A'; also called 10H5-CDRHIN35A
For B1, the binding result with mouse CD73 was “no binding (tested: about 5e-8 M)”.

B2: 10H5-CDRH1W33A (antibody, V domains shown)
VH: B1 VH with W33A, A35N
VL: B1 VL
notes: Alanine mutant of 10H5
With B2, the binding result in the assay with mouse CD73 is reported as “no binding (tested: about 5e-8 M)”.

B3: 10H5-CDRL3Y91A (antibody, V domains shown)
VH: B1 VH with A35N
VL: B1 VL with Y91A
notes: Alanine mutant of 10H5
With B3, the binding result with mouse CD73 is recorded as “no binding (tested: about 5e-8 M)”.

B4: 10H5-CDRH3F95A (antibody, V domains shown)
VH: B1 VH with A35N, F99A
VL: B1 VL
notes: Alanine mutant of 10H5
Turning to B4, in the assay with mouse CD73, the binding result was “no binding (tested: about 5e-8 M)”.

B5: HuB10/HdB7 (antibody, V domains shown)
VH: QVQLVQSGAEVKKPGASVKVSCKASGYVFSSYWINWVRQAPGQGLEWMGQIYPGDGNTNYNRNFKGRVTLTADKSTSTAYMELSSLRSEDTAVYYCAGFADWGQGTLVTVSS
VL: DIQLTQSPSSLSASVGDRVTITCRASQDIGDSLIWLQQKPGKAPKRLIYATSSLDSGVPSRFSGSRSGTDYTLTISSLQPEDFATYYCQQYSGYPLTFGQGTKVEIK
notes: Humanized 10H5; also called HuVHB10/HdVLB7; humanized 10H5 derivative
Take B5: in the assay with human CD73 [3], the koff is 6.54e-05 s⁻¹ and the kon came out at 96400 M⁻¹ s⁻¹. Moreover, in [4], the “AMP concentration in supernatant by LC/MS, MDA-MB-231 cells, 400 µM AMP, 10 nM antibody, 6 hours” value (“AMP concentration in supernatant … 6 hours” below) came out at 331 µM; the “AMP concentration in supernatant by LC/MS, MDA-MB-231 cells, 400 µM AMP, 10 nM antibody, 24 hours” value (from here on “AMP concentration in supernatant … 24 hours”) was 287 µM; the “AMP consumption, Calu-1 cells, 10 nM antibody, 24 hrs” value (“AMP consumption, Calu-1 cells” below) was below 20%; the “AMP consumption, MDA-MB-231 cells, 10 nM antibody, 6 hr” value (“AMP consumption … 6 hr” for short) was below 10%. In [4], the “AMP consumption, MDA-MB-231 cells, 10 nM antibody, 24 h” value was below 50% and the “CFSE left-shift level of CD3/CD28-activated CD4+ T-cells with 400 µM AMP, 10 nM antibody” value (“CFSE left-shift level” for short) stood at 83.4%. In the assay with human CD73 [5], this molecule came in with a Kd of 0.678 nM.

B6: HuB10/HdB6 (antibody, V domains shown)
VH: B5 VH
VL: B5 VL with P44I, L78V
notes: Humanized 10H5; also called HuVHB10/HdVLB6; humanized 10H5 derivative
In the assay with human CD73 [6], B6 returned a koff of 6.57e-05 s⁻¹ and a kon of 81800 M⁻¹ s⁻¹. Besides, in assay [4], the “AMP concentration in supernatant … 6 hours” value came to 336 µM; the “AMP concentration in supernatant … 24 hours” value was 286 µM; the “AMP consumption, Calu-1 cells” value was below 20%; the “AMP consumption … 6 hr” value was below 10%. Moreover, in assay [4], the “AMP consumption, MDA-MB-231 cells, 10 nM antibody, 24 h” value was below 50% and the “CFSE left-shift level” value was 83.7%. The molecule also registered a Kd with human CD73 [5] of 0.803 nM.

B7: HuB9/HdB7 (antibody, V domains shown)
VH: B5 VH with V68A, Y95F
VL: B5 VL
notes: Humanized 10H5; also called HuVHB9/HdVLB7; humanized 10H5 derivative
Take B7: in the assay with human CD73 [7], the koff came to 6.36e-05 s⁻¹ and the kon was 102000 M⁻¹ s⁻¹. Also, in assay [4], the “AMP concentration in supernatant … 6 hours” value is 345 µM; the “AMP concentration in supernatant … 24 hours” value is 298 µM; the “AMP consumption, Calu-1 cells” value was below 20%; the “AMP consumption … 6 hr” value is below 10%. Further, in [4], the “AMP consumption, MDA-MB-231 cells, 10 nM antibody, 24 h” value is below 50% and the “CFSE left-shift level” value turned out to be 83.5%. In the assay with human CD73 [5], the Kd amounted to 0.623 nM.
